Read-outs that look alike come from different tables or passages of the source.
Experiments:
Assay in all cases: SPR
HIV-1 YU-2 gp120 [1] = molecular target: T1, HIV-1 YU-2 gp120 (HIV-1 (YU-2), UniProt P35961)
HIV-1 YU-2 gp120 [2] = molecular target: T1, HIV-1 YU-2 gp120; remark: listed apart in the source
HIV-1 YU-2 gp120 [3] = molecular target: T1, HIV-1 YU-2 gp120; remark: listed apart in the source

Row | Binder | Kd (HIV-1 YU-2 gp120 [1]) | koff (HIV-1 YU-2 gp120 [1]) | kon (HIV-1 YU-2 gp120 [1]) | IC50 (HIV-1 YU-2 gp120 [2]) | IC50 (HIV-1 YU-2 gp120 [3])
1 | Fab m18 N30A (HCDR1) (Fab, V domains shown) VH: VQLLESGPGVVKPSETLSLTCTVSGASVANYYWTWVRQPPGKGLEWIGNVYDSGDTNYNPSLSSRLSLSMDTSKNQFSLRLSSVTAADTATYYCARYHRHFIRGPLSFDYWGRGTLVTVSS VL: LQMTQSPSFLSASVGDRVSITCRASQDIQKFLAWYQLTPGDAPKLLMYSASTLQSGVPSRFSGSGSGTEFTLTISGLQPEDFATYYCQHLKRYPYTFGQGTKLEIS | 0.0409 µM | 0.0017 ± 0.3 s⁻¹ | 40000 ± 0.4 M⁻¹ s⁻¹ | > 1 µM | > 1 µM
2 | Fab m18 R24A (LCDR1) (Fab, V domains shown) VH: VQLLESGPGVVKPSETLSLTCTVSGASVNNYYWTWVRQPPGKGLEWIGNVYDSGDTNYNPSLSSRLSLSMDTSKNQFSLRLSSVTAADTATYYCARYHRHFIRGPLSFDYWGRGTLVTVSS VL: LQMTQSPSFLSASVGDRVSITCAASQDIQKFLAWYQLTPGDAPKLLMYSASTLQSGVPSRFSGSGSGTEFTLTISGLQPEDFATYYCQHLKRYPYTFGQGTKLEIS | 0.0168 µM | 0.00039 ± 3.7 s⁻¹ | 23000 ± 0.9 M⁻¹ s⁻¹ | > 1 µM | > 1 µM
3 | Fab m18 P95A (LCDR3) (Fab, V domains shown) VH: VQLLESGPGVVKPSETLSLTCTVSGASVNNYYWTWVRQPPGKGLEWIGNVYDSGDTNYNPSLSSRLSLSMDTSKNQFSLRLSSVTAADTATYYCARYHRHFIRGPLSFDYWGRGTLVTVSS VL: LQMTQSPSFLSASVGDRVSITCRASQDIQKFLAWYQLTPGDAPKLLMYSASTLQSGVPSRFSGSGSGTEFTLTISGLQPEDFATYYCQHLKRYAYTFGQGTKLEIS | 0.0355 µM | 0.0019 ± 0.3 s⁻¹ | 53000 ± 1.6 M⁻¹ s⁻¹ | > 1 µM | > 1 µM
4 | Fab m18 Y102A (HCDR3) (Fab, V domains shown) VH: VQLLESGPGVVKPSETLSLTCTVSGASVNNYYWTWVRQPPGKGLEWIGNVYDSGDTNYNPSLSSRLSLSMDTSKNQFSLRLSSVTAADTATYYCARYHRHFIRGPLSFDAWGRGTLVTVSS VL: LQMTQSPSFLSASVGDRVSITCRASQDIQKFLAWYQLTPGDAPKLLMYSASTLQSGVPSRFSGSGSGTEFTLTISGLQPEDFATYYCQHLKRYPYTFGQGTKLEIS | 0.0315 µM | 0.0012 ± 0.4 s⁻¹ | 37000 ± 1.4 M⁻¹ s⁻¹ | > 1 µM | > 1 µM
5 | Fab m18 Q27A (LCDR1) (Fab, V domains shown) VH: VQLLESGPGVVKPSETLSLTCTVSGASVNNYYWTWVRQPPGKGLEWIGNVYDSGDTNYNPSLSSRLSLSMDTSKNQFSLRLSSVTAADTATYYCARYHRHFIRGPLSFDYWGRGTLVTVSS VL: LQMTQSPSFLSASVGDRVSITCRASADIQKFLAWYQLTPGDAPKLLMYSASTLQSGVPSRFSGSGSGTEFTLTISGLQPEDFATYYCQHLKRYPYTFGQGTKLEIS | 0.0067 µM | 0.00049 ± 3.9 s⁻¹ | 72000 ± 2.9 M⁻¹ s⁻¹ | 0.0496 ± 0.0031 µM | 0.0545 ± 0.0035 µM
6 | Fab m18 D53A (HCDR2) (Fab, V domains shown) VH: VQLLESGPGVVKPSETLSLTCTVSGASVNNYYWTWVRQPPGKGLEWIGNVYASGDTNYNPSLSSRLSLSMDTSKNQFSLRLSSVTAADTATYYCARYHRHFIRGPLSFDYWGRGTLVTVSS VL: LQMTQSPSFLSASVGDRVSITCRASQDIQKFLAWYQLTPGDAPKLLMYSASTLQSGVPSRFSGSGSGTEFTLTISGLQPEDFATYYCQHLKRYPYTFGQGTKLEIS | 0.007 µM | 0.00012 ± 1.1 s⁻¹ | 16000 ± 1.3 M⁻¹ s⁻¹ | > 0.5 µM | > 0.5 µM
7 | Fab m18 N31A (HCDR1) (Fab, V domains shown) VH: VQLLESGPGVVKPSETLSLTCTVSGASVNAYYWTWVRQPPGKGLEWIGNVYDSGDTNYNPSLSSRLSLSMDTSKNQFSLRLSSVTAADTATYYCARYHRHFIRGPLSFDYWGRGTLVTVSS VL: LQMTQSPSFLSASVGDRVSITCRASQDIQKFLAWYQLTPGDAPKLLMYSASTLQSGVPSRFSGSGSGTEFTLTISGLQPEDFATYYCQHLKRYPYTFGQGTKLEIS | 0.0259 µM | 0.0013 ± 0.5 s⁻¹ | 51000 ± 1 M⁻¹ s⁻¹ | > 1 µM | > 1 µM
8 | Fab m18 K31R (LCDR1) (Fab, V domains shown) VH: VQLLESGPGVVKPSETLSLTCTVSGASVNNYYWTWVRQPPGKGLEWIGNVYDSGDTNYNPSLSSRLSLSMDTSKNQFSLRLSSVTAADTATYYCARYHRHFIRGPLSFDYWGRGTLVTVSS VL: LQMTQSPSFLSASVGDRVSITCRASQDIQRFLAWYQLTPGDAPKLLMYSASTLQSGVPSRFSGSGSGTEFTLTISGLQPEDFATYYCQHLKRYPYTFGQGTKLEIS | 0.0347 µM | 0.0011 ± 0.2 s⁻¹ | 31000 ± 1.2 M⁻¹ s⁻¹ | > 1 µM | > 1 µM
9 | Fab m18 Y32A (HCDR1) (Fab, V domains shown) VH: VQLLESGPGVVKPSETLSLTCTVSGASVNNAYWTWVRQPPGKGLEWIGNVYDSGDTNYNPSLSSRLSLSMDTSKNQFSLRLSSVTAADTATYYCARYHRHFIRGPLSFDYWGRGTLVTVSS VL: LQMTQSPSFLSASVGDRVSITCRASQDIQKFLAWYQLTPGDAPKLLMYSASTLQSGVPSRFSGSGSGTEFTLTISGLQPEDFATYYCQHLKRYPYTFGQGTKLEIS | 0.0004 µM | 6.1e-05 s⁻¹ | 120000 ± 0.2 M⁻¹ s⁻¹ | 0.247 ± 0.0158 µM | 0.432 ± 0.0315 µM
10 | Fab m18 T53A (LCDR2) (Fab, V domains shown) VH: VQLLESGPGVVKPSETLSLTCTVSGASVNNYYWTWVRQPPGKGLEWIGNVYDSGDTNYNPSLSSRLSLSMDTSKNQFSLRLSSVTAADTATYYCARYHRHFIRGPLSFDYWGRGTLVTVSS VL: LQMTQSPSFLSASVGDRVSITCRASQDIQKFLAWYQLTPGDAPKLLMYSASALQSGVPSRFSGSGSGTEFTLTISGLQPEDFATYYCQHLKRYPYTFGQGTKLEIS | 0.0352 µM | 0.00071 ± 7 s⁻¹ | 20000 ± 2.1 M⁻¹ s⁻¹ | > 0.5 µM | > 0.5 µM
11 | Fab m18 R93A (LCDR3) (Fab, V domains shown) VH: VQLLESGPGVVKPSETLSLTCTVSGASVNNYYWTWVRQPPGKGLEWIGNVYDSGDTNYNPSLSSRLSLSMDTSKNQFSLRLSSVTAADTATYYCARYHRHFIRGPLSFDYWGRGTLVTVSS VL: LQMTQSPSFLSASVGDRVSITCRASQDIQKFLAWYQLTPGDAPKLLMYSASTLQSGVPSRFSGSGSGTEFTLTISGLQPEDFATYYCQHLKAYPYTFGQGTKLEIS | 0.002 µM | 8e-05 s⁻¹ | 39000 ± 0.2 M⁻¹ s⁻¹ | 0.0495 ± 0.0205 µM | 0.0787 ± 0.0032 µM
12 | Fab m18 S56A (LCDR2) (Fab, V domains shown) VH: VQLLESGPGVVKPSETLSLTCTVSGASVNNYYWTWVRQPPGKGLEWIGNVYDSGDTNYNPSLSSRLSLSMDTSKNQFSLRLSSVTAADTATYYCARYHRHFIRGPLSFDYWGRGTLVTVSS VL: LQMTQSPSFLSASVGDRVSITCRASQDIQKFLAWYQLTPGDAPKLLMYSASTLQAGVPSRFSGSGSGTEFTLTISGLQPEDFATYYCQHLKRYPYTFGQGTKLEIS | 0.0257 µM | 0.00066 ± 1.4 s⁻¹ | 28000 ± 0.7 M⁻¹ s⁻¹ | > 0.5 µM | > 0.5 µM
13 | Fab m18 Y33F (HCDR1) (Fab, V domains shown) VH: VQLLESGPGVVKPSETLSLTCTVSGASVNNYFWTWVRQPPGKGLEWIGNVYDSGDTNYNPSLSSRLSLSMDTSKNQFSLRLSSVTAADTATYYCARYHRHFIRGPLSFDYWGRGTLVTVSS VL: LQMTQSPSFLSASVGDRVSITCRASQDIQKFLAWYQLTPGDAPKLLMYSASTLQSGVPSRFSGSGSGTEFTLTISGLQPEDFATYYCQHLKRYPYTFGQGTKLEIS | 0.0563 µM | 0.0024 ± 0.8 s⁻¹ | 42000 ± 1.9 M⁻¹ s⁻¹ | > 1 µM | > 1 µM
14 | Fab m18 D28A (LCDR1) (Fab, V domains shown) VH: VQLLESGPGVVKPSETLSLTCTVSGASVNNYYWTWVRQPPGKGLEWIGNVYDSGDTNYNPSLSSRLSLSMDTSKNQFSLRLSSVTAADTATYYCARYHRHFIRGPLSFDYWGRGTLVTVSS VL: LQMTQSPSFLSASVGDRVSITCRASQAIQKFLAWYQLTPGDAPKLLMYSASTLQSGVPSRFSGSGSGTEFTLTISGLQPEDFATYYCQHLKRYPYTFGQGTKLEIS | 0.0007 µM | 1.9e-05 s⁻¹ | 28000 ± 3.1 M⁻¹ s⁻¹ | 0.0655 ± 0.0005 µM | 0.0708 ± 0.0018 µM
15 | Fab m18 Q30A (LCDR1) (Fab, V domains shown) VH: VQLLESGPGVVKPSETLSLTCTVSGASVNNYYWTWVRQPPGKGLEWIGNVYDSGDTNYNPSLSSRLSLSMDTSKNQFSLRLSSVTAADTATYYCARYHRHFIRGPLSFDYWGRGTLVTVSS VL: LQMTQSPSFLSASVGDRVSITCRASQDIAKFLAWYQLTPGDAPKLLMYSASTLQSGVPSRFSGSGSGTEFTLTISGLQPEDFATYYCQHLKRYPYTFGQGTKLEIS | 0.0014 µM | 0.00012 ± 0.1 s⁻¹ | 91000 ± 0.1 M⁻¹ s⁻¹ | 0.0803 ± 0.0167 µM | 0.129 ± 0.005 µM
16 | Fab m18 R100aE (HCDR3) (Fab, V domains shown) VH: VQLLESGPGVVKPSETLSLTCTVSGASVNNYYWTWVRQPPGKGLEWIGNVYDSGDTNYNPSLSSRLSLSMDTSKNQFSLRLSSVTAADTATYYCARYHRHFIEGPLSFDYWGRGTLVTVSS VL: LQMTQSPSFLSASVGDRVSITCRASQDIQKFLAWYQLTPGDAPKLLMYSASTLQSGVPSRFSGSGSGTEFTLTISGLQPEDFATYYCQHLKRYPYTFGQGTKLEIS | 0.0692 µM | 0.0011 ± 0.7 s⁻¹ | 16000 ± 0.6 M⁻¹ s⁻¹ | > 1 µM | > 1 µM
17 | Fab m18 Y33A (HCDR1) (Fab, V domains shown) VH: VQLLESGPGVVKPSETLSLTCTVSGASVNNYAWTWVRQPPGKGLEWIGNVYDSGDTNYNPSLSSRLSLSMDTSKNQFSLRLSSVTAADTATYYCARYHRHFIRGPLSFDYWGRGTLVTVSS VL: LQMTQSPSFLSASVGDRVSITCRASQDIQKFLAWYQLTPGDAPKLLMYSASTLQSGVPSRFSGSGSGTEFTLTISGLQPEDFATYYCQHLKRYPYTFGQGTKLEIS | 0.0307 µM | 0.0038 ± 0.2 s⁻¹ | 120000 ± 0.5 M⁻¹ s⁻¹ | 0.135 ± 0.0071 µM | 0.15 ± 0.0035 µM

Reference: paper PMC3499988 (Biochemistry, 2011)
